Experimental data taken from publication PMC2725194.

Key:
Assay in all cases: AlphaScreen or HTRF
[1] = biological target: PPARα ligand binding domain (LBD)
[2] = biological target: PPARγ ligand binding domain (LBD)
[3] = biological target: PPARδ ligand binding domain (LBD)

AlphaScreen signal [1]: < 800
AlphaScreen signal [2]: < 800
AlphaScreen signal [3]: < 800
Substance: N-terminal biotinylated CBP1 peptide
